1 molecule from publication doi:10.1101/2023.09.24.559210 can be followed below.

Experiment [1] has as its target JAM-A C-terminal 10mer peptide, N-terminally FITC-conjugated. Put plainly: fluorescence polarisation.
For experiment [2], the target named is nectin-1 C-terminal 10mer peptide, N-terminally FITC-conjugated. Put plainly: fluorescence polarisation.
Experiment [3] deals with nectin-1 C-terminal 10mer peptide, N-terminally biotinylated. Put plainly: BLI. On the technique in general: Biolayer interferometry detects binding as a change in optical thickness at a sensor tip.
Experiment [4] deals with JAM-A C-terminal 10mer peptide, N-terminally biotinylated. Put plainly: BLI.

B1: human afadin PDZ domain (domain or fragment)
chain: IITVTLKKQNGMGLSIVAAKGAGQDKLGIYVKSVVKGGAADVDGRLAAGDQLLSVDGRSLVGLSQERAAELMTRTSSVVTLEVAKQG
Usually Kd stands for a measure of binding affinity in units of concentration. Low values mean tighter binding, high ones weaker binding. With B1, the dissociation constant Kd in experiment [1] turned out to be 5 µM; in experiment [2], 3 µM; in experiment [3], 3 µM; in experiment [4], 5 µM. Also, the bond lifetime in experiment [3] was determined as 1.2 s; in experiment [4], 0.65 s.
